We go through five substances from PMC4786692.

In experiment [1] the target is VEGF dual dAb (human). Briefly: SPR; Biacore T200, C1 chip; VEGF dual dAb captured on immobilised protein A (20 RU); VEGF injected at 0.03-32 nM (32 nM curves removed), 60 μl/min; 37 °C, HBS-EP; 1:1 model; triplicate. A general note: Surface plasmon resonance follows binding to a sensor surface in real time, without labels.
The target of experiment [2] is VEGF dual dAb (human). Description: SPR; ProteOn GLM chip; VEGF dual dAb alone or in complex with VEGF-165 immobilised by amine coupling; FcRn injected at 3.9-1000 nM; 25 °C, HBS-EP pH 6; equilibrium model.
Experiment [3] has as its target VEGF dual dAb in complex with human VEGF-165 (human). The experiment is described as above.
For experiment [4], the target named is Human VEGF_(1–165) (human). Briefly: SEC-MALS; input proteins and complexes at input molar ratios 1:2, 2:1, 4:1 (dual dAb-VEGF) and 1:1, 1:2, 2:1, 4:1 (bevacizumab-VEGF); Superdex 200 column; PBS pH 7.4. A general note: Size exclusion chromatography separates by hydrodynamic size, large species first.
The target of experiment [5] is VEGF-165 (R&D Systems) (human). Briefly: MSD receptor binding inhibition assay; VEGFR1 coated at […]; anti-VEGF molecule added 10 min before VEGF-165 (10 ng/ml final); 2 h room temperature; bound VEGF detected with biotinylated anti-VEGF and streptavidin sulfo-TAG.
The target in experiment [6] is VEGF-165 (R&D Systems) (human). Description: MSD receptor binding inhibition assay; VEGFR2 coated at […]; anti-VEGF molecule added 10 min before VEGF-165 (10 ng/ml final); 2 h room temperature; bound VEGF detected with biotinylated anti-VEGF and streptavidin sulfo-TAG.
The next experiment has as its target Human VEGF-A121 (human). Description: MSD (meso scale discovery) plate binding assay; VEGF ligand coated at 2 μg/ml on MSD high bind plate; anti-VEGF molecule added in 0.1% BSA/PBS, 2 h room temperature; detection with sulfo-TAG anti-human IgG (Fc-specific); n = 3.
Experiment [7] deals with Human VEGF_(1–165) (human). Described as above.
For a further experiment, the target named is Murine VEGF-A164 (mouse). The experiment is described as above.

Aflibercept (Fc fusion), sequence (chain): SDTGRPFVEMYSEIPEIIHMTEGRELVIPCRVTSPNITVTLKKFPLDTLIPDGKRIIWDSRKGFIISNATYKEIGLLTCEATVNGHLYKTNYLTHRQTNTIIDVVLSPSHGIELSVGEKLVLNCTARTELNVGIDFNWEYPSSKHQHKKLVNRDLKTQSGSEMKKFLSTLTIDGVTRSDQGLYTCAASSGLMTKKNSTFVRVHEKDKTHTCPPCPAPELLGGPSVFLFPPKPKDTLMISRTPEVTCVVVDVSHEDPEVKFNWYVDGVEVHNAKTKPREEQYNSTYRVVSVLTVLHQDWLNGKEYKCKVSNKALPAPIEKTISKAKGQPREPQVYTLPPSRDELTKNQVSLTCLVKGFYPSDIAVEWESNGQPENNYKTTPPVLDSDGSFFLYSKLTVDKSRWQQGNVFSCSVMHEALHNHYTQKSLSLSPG
VEGF dual dAb (human), sequence (heavy, as listed by the source, chain 1 of 2): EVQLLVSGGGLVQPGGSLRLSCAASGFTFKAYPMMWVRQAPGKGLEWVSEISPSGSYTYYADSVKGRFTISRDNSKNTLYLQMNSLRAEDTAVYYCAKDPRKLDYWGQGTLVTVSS
VEGF dual dAb (human), sequence (light, as listed by the source, chain 2 of 2): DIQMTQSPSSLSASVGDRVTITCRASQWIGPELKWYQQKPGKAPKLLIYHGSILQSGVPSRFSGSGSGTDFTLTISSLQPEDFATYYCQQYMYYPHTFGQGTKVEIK
Human FcRn, sequence (P55899 24-365): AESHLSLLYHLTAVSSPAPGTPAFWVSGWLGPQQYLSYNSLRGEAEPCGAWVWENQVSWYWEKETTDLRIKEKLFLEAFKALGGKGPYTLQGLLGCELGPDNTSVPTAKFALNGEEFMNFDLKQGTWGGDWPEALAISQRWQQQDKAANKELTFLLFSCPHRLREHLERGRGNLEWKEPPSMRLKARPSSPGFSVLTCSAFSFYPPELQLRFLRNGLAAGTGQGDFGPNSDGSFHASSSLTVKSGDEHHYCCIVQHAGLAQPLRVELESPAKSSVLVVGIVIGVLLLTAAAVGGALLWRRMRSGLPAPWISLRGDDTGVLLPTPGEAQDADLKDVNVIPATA
Human FcRn, sequence (P61769 21-119): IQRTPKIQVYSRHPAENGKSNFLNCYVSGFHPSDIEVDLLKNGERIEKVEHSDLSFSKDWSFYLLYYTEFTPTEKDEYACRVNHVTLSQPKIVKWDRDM
VEGF dual dAb in complex with human VEGF-165 (human), sequence (heavy, as listed by the source, chain 1 of 2): as the sequence (heavy, as listed by the source, chain 1 of 2) above
VEGF dual dAb in complex with human VEGF-165 (human), sequence (light, as listed by the source, chain 2 of 2): as the sequence (light, as listed by the source, chain 2 of 2) above

For “Human VEGF-A165, E. coli expressed (ligand)”, in the experiment with VEGF dual dAb (human) [1], the Kd (commonly the equilibrium constant for the complex coming apart) was 0.00994 nM; the koff (as a rule, a measure of how fast the partners let go of each other) is 8.08e-05 s⁻¹; the kon (as a rule, the second-order rate constant of association) stood at 8.13e+06 M⁻¹ s⁻¹.

In the experiment with VEGF dual dAb (human) [1], Murine VEGF-A164 (ligand) yielded a Kd of 0.0065 nM, a koff of 5.19e-05 s⁻¹ and a kon of 8e+06 M⁻¹ s⁻¹.

For “Human FcRn (from UniProt P55899 24-365; P61769 21-119) (receptor)”, the Kd with VEGF dual dAb (human) [2] was 325 nM; in experiment [3], 479 nM.

In the case of Human VEGF_(1–165) (ligand), in experiment [4], the stoichiometry N (as a rule, the number of molecules, sites or subunits per partner or assembly) is 2. Moreover, in the experiment with VEGF dual dAb (human) [1], the dissociation constant Kd worked out at 0.00717 nM, the koff came to 4.76e-05 s⁻¹ and the kon was 6.63e+06 M⁻¹ s⁻¹.

Regarding Aflibercept (Fc fusion), the IC50 (in general, the point on the concentration scale where inhibition reaches its midpoint) in experiment [5] worked out at 0.075 nM; in [6], 0.032 nM. For the same substance, the EC50 (as a rule, the concentration needed to bring the measured effect to its halfway point) with Human VEGF-A121 (human) was determined as 0.317 nM; in [7], 0.086 nM; with Murine VEGF-A164 (mouse), 0.095 nM.
